Target: GluA2 flip receptor, unedited at the pore site (Q-containing), wild type (UniProt P19491)
Chain of UniProt P19491 (P19491 other isoform, or with tags, fused parts or gaps): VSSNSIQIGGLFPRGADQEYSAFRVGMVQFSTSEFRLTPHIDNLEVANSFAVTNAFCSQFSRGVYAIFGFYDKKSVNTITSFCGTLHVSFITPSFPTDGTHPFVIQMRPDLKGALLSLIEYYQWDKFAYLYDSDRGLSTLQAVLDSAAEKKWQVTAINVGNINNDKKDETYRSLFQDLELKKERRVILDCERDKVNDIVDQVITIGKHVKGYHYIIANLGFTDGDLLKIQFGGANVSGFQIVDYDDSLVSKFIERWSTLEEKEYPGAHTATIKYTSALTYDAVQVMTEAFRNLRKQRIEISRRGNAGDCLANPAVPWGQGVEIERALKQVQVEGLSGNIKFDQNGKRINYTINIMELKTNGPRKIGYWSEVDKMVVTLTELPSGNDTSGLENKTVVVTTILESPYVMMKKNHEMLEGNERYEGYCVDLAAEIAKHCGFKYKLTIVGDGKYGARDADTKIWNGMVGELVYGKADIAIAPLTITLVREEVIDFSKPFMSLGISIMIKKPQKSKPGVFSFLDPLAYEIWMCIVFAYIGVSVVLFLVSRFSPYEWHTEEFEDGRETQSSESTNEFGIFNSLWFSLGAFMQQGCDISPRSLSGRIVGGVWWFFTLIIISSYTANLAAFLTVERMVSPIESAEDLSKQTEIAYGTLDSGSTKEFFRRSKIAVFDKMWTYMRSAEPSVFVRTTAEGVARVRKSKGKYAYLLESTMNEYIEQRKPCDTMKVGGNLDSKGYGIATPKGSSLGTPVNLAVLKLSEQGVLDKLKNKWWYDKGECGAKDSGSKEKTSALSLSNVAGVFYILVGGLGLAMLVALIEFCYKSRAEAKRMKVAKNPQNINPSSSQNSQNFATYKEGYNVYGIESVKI

coupling energy of a thermodynamic cycle (γ2 wild type or L2 GS with GluA2 wild type or GAG/GSG), superactivation during 7 s of 10 mM glutamate: 1.08 kcal/mol
B1: TARP γ2 (Stargazin), mouse, wild type (natural protein)
chain: MGLFDRGVQMLLTTVGAFAAFSLMTIAVGTDYWLYSRGVCKTKSVSENETSKKNEEVMTHSGLWRTCCLEGNFKGLCKQIDHFPEDADYEADTAEYFLRAVRASSIFPILSVILLFMGGLCIAASEFYKTRHNIILSAGIFFVSAGLSNIIGIIVYISANAGDPSKSDSKKNSYSYGWSFYFGALSFIIAEMVGVLAVHMFIDRHKQLRATARATDYLQASAITRIPSYRYRYQRRSRSSSRSTEPSHSRDASPVGVKGFNTLPSTEISMYTLSRDPLKAATTPTATYNSDRDNSFLQVHNCIQKDSKDSLHANTANRRTTPV
